Data on five substances can be found in publication PMC9065035, “Structural basis for the synthesis of the core 1 structure by C1GalT1” (Nature Communications, 2022).

Data set [1] has as its target DmC1GalT1^T43-Q388 (Drosophila melanogaster C1GalT1, residues T43-Q388) (Drosophila melanogaster). Description: ITC; under an excess of UDP: 2 mM (glyco)peptide titrated into DmC1GalT1^T43-Q388 (60 µM for APDT*RP and APDTRP, 50 µM for P4/P7); 20 °C; 25 mM TRIS pH 7.5, 150 mM NaCl, 1 mM UDP, 1 mM MnCl2; one-site model; duplicate. Background: ITC needs no label: the signal is the heat of the interaction.

Data set [2] addresses Drosophila melanogaster C1GalT1, residues T43-Q388 (DmC1GalT1^T43-Q388) (Drosophila melanogaster) (UniProt Q7K237). As to the kind of experiment: ITC; 2 mM glycopeptide titrated into the enzyme (60 uM for APDT*RP, 50 uM for P4/P7); excess of UDP: 25 mM TRIS pH 7.5, 150 mM NaCl, 1 mM UDP, 1 mM MnCl2; 20 °C; one-site model; duplicate.
Data set [3] concerns the target DmC1GalT1^T43-Q388 (Drosophila melanogaster C1GalT1, residues T43-Q388) (Drosophila melanogaster) (UniProt Q7K237).
Data set [4] shares this target. As to the kind of experiment: ITC; with an excess of UDP: 2 mM (glyco)peptide titrated into 60 μM (APDT*RP, APDTRP) or 50 μM (P4/P7) enzyme; 25 mM TRIS pH 7.5, 150 mM NaCl, 1 mM UDP, 1 mM MnCl2; 20 °C; one-site model; low Wiseman c (c < 1).
In data set [5] the test system is CC(=O)N[C@H]1[C@@H](O[C@H](C)[C@H](NC(=O)[C@H](CC(=O)O)NC(=O)[C@@H]2CCCN2C(=O)[C@H](C)N)C(=O)N[C@@H](CCCNC(=N)N)C(=O)N2CCC[C@H]2C(N)=O)O[C@H](CO)[C@H](O)[C@@H]1O. As to the kind of experiment: purified protein, by the assay type. The following applies: 500 µM UDP-Gal, 37.0 °C.
In data set [6] the test system is CC(=O)N[C@H]1[C@@H](O[C@H](C)[C@H](NC(=O)[C@H](C)NC(=O)[C@H](C)NC(=O)[C@@H]2CCCN2)C(=O)NCC(=O)N2CCC[C@H]2C(=O)N[C@@H](Cc2ccc(O)cc2)C(N)=O)O[C@H](CO)[C@H](O)[C@@H]1O. Description: purified protein, by the assay type. The conditions noted are these: other: acceptor substrate varied (P1–P7 12.5–500 µM; APDT*RP/APDS*RP 12.5–1000 µM; α-O-methyl-GalNAc up to 2 mM), 500 µM UDP-Gal, 500 nM enzyme, 25 mM Tris pH 7.5, 150 mM NaCl, 50 µM MnCl2, 1 mg/ml BS, 37.0 °C.

For data set [7], the system named is CC(=O)N[C@H]1[C@@H](O[C@H](C)[C@H](NC(=O)[C@H](CC(=O)O)NC(=O)[C@H](C)NC(=O)[C@@H](N)Cc2ccc(O)cc2)C(=O)NCC(=O)N2CCC[C@H]2C(=O)N[C@@H](Cc2ccccc2)C(N)=O)O[C@H](CO)[C@H](O)[C@@H]1O. As to the kind of experiment: purified protein, by the assay type. The conditions noted are these: other: acceptor substrate varied (P1–P7 12.5–500 µM; APDT*RP/APDS*RP 12.5–1000 µM; α-O-methyl-GalNAc up to 2 mM), 500 µM UDP-Gal, 500 nM enzyme, 25 mM Tris pH 7.5, 150 mM NaCl, 50 µM MnCl2, 1 mg/ml BS, 37.0 °C.

Where [8] appears, read: other: acceptor substrate varied (P1–P7 12.5–500 µM; APDT*RP/APDS*RP 12.5–1000 µM; α-O-methyl-GalNAc up to 2 mM), 500 nM enzyme, 25 mM Tris pH 7.5, 150 mM NaCl, 50 µM MnCl2, 1 mg/ml BS.

As usually defined, the Kd is a measure of binding affinity in units of concentration. Low readings indicate a tighter complex, high ones a looser complex. The term stoichiometry N denotes a count of units in the complex or per binding partner. On to “APDT*RP glycopeptide (* = GalNAc on the Thr)”, for which, in data set [1], the Kd came to 174 µM and the stoichiometry N was found to be 0.88.
Substance APDT*RP glycopeptide (GalNAc on Thr) had an equilibrium dissociation constant (Kd) in data set [2] of 173 µM.
Turning to “APDT*RP glycopeptide (MUC1 tandem repeat epitope with alpha-GalNAc on Thr)”, the Km^app of the glycopeptide as acceptor substrate (UDP-Glo glycosylation kinetics, 500 nM enzyme, 500 μM UDP-Gal) in data set [3] stood at 195 µM. In data set [4], this substance had a fold by which UDP binds the enzyme more strongly than this peptide of 9.5 fold and a stoichiometry N of 1.
One may read the Km as the substrate concentration at which the rate is half of its maximum. As to “DmC1GalT1^S73-Q388 (Drosophila melanogaster)”, in data set [5] (other: construct S73-Q388 (Hi5 cells), APDT*RP varied 12.5 µM–1 mM, fit ± standard error, n = 2, pH 7.5), the Km is given as 322.6 µM.
A word on the kcat: it is the number of substrate molecules converted per active site and unit of time at saturation. As to “DmC1GalT1^T43-Q388 (Drosophila melanogaster)”, the Km amounted to 195 µM in data set [5] (setting [8]), 50.06 µM in data set [6] and 139.6 µM in data set [7]. Also, the kcat in data set [5] (setting [8]) was found to be 0.0583 s⁻¹.
